{
  "source": "the supplement of paper PMC10567573",
  "parents": {"B1": {"name": "EMD (parent)", "chain": "YQSKGYNDDYYEESYFTTRTYGEP"}, "B2": {"name": "MTMR15 (parent)", "chain": "YVKAKKSIDKDEEFAGSSPQSSKS"}},
  "data": [
    {"variants_of": "B1", "experiment": "protein stability index of a GFP-peptide fusion (GPS, HEK-293T) (PSI 1-6); higher = more stable", "conditions": "c terminus: a fixed tail appended", "values": [
      {"variant": "NQSKGYNDDYYEESYFTTRTYGEP", "note": "[Y1N]", "protein stability index": 3.9},
      {"variant": "LQSKGYNDDYYEESYFTTRTYGEP", "note": "[Y1L]", "protein stability index": 2.92},
      {"variant": "KQSKGYNDDYYEESYFTTRTYGEP", "note": "[Y1K]", "protein stability index": 3.63},
      {"variant": "RQSKGYNDDYYEESYFTTRTYGEP", "note": "[Y1R]", "protein stability index": 3.48},
      {"variant": "AQSKGYNDDYYEESYFTTRTYGEP", "note": "[Y1A]", "protein stability index": 3.8},
      {"variant": "EQSKGYNDDYYEESYFTTRTYGEP", "note": "[Y1E]", "protein stability index": 4.2},
      {"variant": "FQSKGYNDDYYEESYFTTRTYGEP", "note": "[Y1F]", "protein stability index": 1.97},
      {"variant": "WQSKGYNDDYYEESYFTTRTYGEP", "note": "[Y1W]", "protein stability index": 2.61},
      {"variant": "QQSKGYNDDYYEESYFTTRTYGEP", "note": "[Y1Q]", "protein stability index": 4.15},
      {"variant": "MQSKGYNDDYYEESYFTTRTYGEP", "note": "[Y1M]", "protein stability index": 3.22},
      {"variant": "DQSKGYNDDYYEESYFTTRTYGEP", "note": "[Y1D]", "protein stability index": 4.46},
      {"variant": "PQSKGYNDDYYEESYFTTRTYGEP", "note": "[Y1P]", "protein stability index": 3.63},
      {"variant": "HQSKGYNDDYYEESYFTTRTYGEP", "note": "[Y1H]", "protein stability index": 3.76},
      {"variant": "GQSKGYNDDYYEESYFTTRTYGEP", "note": "[Y1G]", "protein stability index": 3.8},
      {"variant": "SQSKGYNDDYYEESYFTTRTYGEP", "note": "[Y1S]", "protein stability index": 3.67},
      {"variant": "CQSKGYNDDYYEESYFTTRTYGEP", "note": "[Y1C]", "protein stability index": 3.02},
      {"variant": "VQSKGYNDDYYEESYFTTRTYGEP", "note": "[Y1V]", "protein stability index": 3.67},
      {"variant": "TQSKGYNDDYYEESYFTTRTYGEP", "note": "[Y1T]", "protein stability index": 3.7},
      {"variant": "IQSKGYNDDYYEESYFTTRTYGEP", "note": "[Y1I]", "protein stability index": 3.2},
      {"variant": "YFSKGYNDDYYEESYFTTRTYGEP", "note": "[Q2F]", "protein stability index": 1.93},
      {"variant": "YGSKGYNDDYYEESYFTTRTYGEP", "note": "[Q2G]", "protein stability index": 2.53},
      {"variant": "YHSKGYNDDYYEESYFTTRTYGEP", "note": "[Q2H]", "protein stability index": 2.03},
      {"variant": "YDSKGYNDDYYEESYFTTRTYGEP", "note": "[Q2D]", "protein stability index": 3.5},
      {"variant": "YESKGYNDDYYEESYFTTRTYGEP", "note": "[Q2E]", "protein stability index": 3.62},
      {"variant": "YCSKGYNDDYYEESYFTTRTYGEP", "note": "[Q2C]", "protein stability index": 2.12},
      {"variant": "YASKGYNDDYYEESYFTTRTYGEP", "note": "[Q2A]", "protein stability index": 2.15}
    ]},
    {"variants_of": "B2", "experiment": "protein stability index of a GFP-peptide fusion (GPS, HEK-293T) (PSI 1-6); higher = more stable", "conditions": "c terminus: a fixed tail appended", "values": [
      {"variant": "YVKAKKSIDKDEEFAGSSPQSKKS", "note": "[S22K]", "protein stability index": 1.92},
      {"variant": "YVKAKKSIDKDEEFAGSSPQSLKS", "note": "[S22L]", "protein stability index": 2.77},
      {"variant": "YVKAKKSIDKDEEFAGSSPQSGKS", "note": "[S22G]", "protein stability index": 2.97},
      {"variant": "YVKAKKSIDKDEEFAGSSPQSAKS", "note": "[S22A]", "protein stability index": 3.1},
      {"variant": "YVKAKKSIDKDEEFAGSSPQSHKS", "note": "[S22H]", "protein stability index": 2.77},
      {"variant": "YVKAKKSIDKDEEFAGSSPQSPKS", "note": "[S22P]", "protein stability index": 3.22},
      {"variant": "YVKAKKSIDKDEEFAGSSPQSNKS", "note": "[S22N]", "protein stability index": 2.83},
      {"variant": "YVKAKKSIDKDEEFAGSSPQSTKS", "note": "[S22T]", "protein stability index": 2.87},
      {"variant": "YVKAKKSIDKDEEFAGSSPQSIKS", "note": "[S22I]", "protein stability index": 3.18},
      {"variant": "YVKAKKSIDKDEEFAGSSPQSQKS", "note": "[S22Q]", "protein stability index": 2.6},
      {"variant": "YVKAKKSIDKDEEFAGSSPQSEKS", "note": "[S22E]", "protein stability index": 3.47},
      {"variant": "YVKAKKSIDKDEEFAGSSPQSCKS", "note": "[S22C]", "protein stability index": 3.08},
      {"variant": "YVKAKKSIDKDEEFAGSSPQSRKS", "note": "[S22R]", "protein stability index": 3.59},
      {"variant": "YVKAKKSIDKDEEFAGSSPQSDKS", "note": "[S22D]", "protein stability index": 3.58},
      {"variant": "YVKAKKSIDKDEEFAGSSPQSMKS", "note": "[S22M]", "protein stability index": 3.06},
      {"variant": "YVKAKKSIDKDEEFAGSSPQSWKS", "note": "[S22W]", "protein stability index": 2.27},
      {"variant": "YVKAKKSIDKDEEFAGSSPQSYKS", "note": "[S22Y]", "protein stability index": 2.78},
      {"variant": "YVKAKKSIDKDEEFAGSSPQSVKS", "note": "[S22V]", "protein stability index": 3.36},
      {"variant": "YVKAKKSIDKDEEFAGSSPQSFKS", "note": "[S22F]", "protein stability index": 2.89},
      {"variant": "YVKAKKSIDKDEEFAGSSPQSSHS", "note": "[K23H]", "protein stability index": 3.33},
      {"variant": "YVKAKKSIDKDEEFAGSSPQSSMS", "note": "[K23M]", "protein stability index": 3.1},
      {"variant": "YVKAKKSIDKDEEFAGSSPQSSPS", "note": "[K23P]", "protein stability index": 3.94},
      {"variant": "YVKAKKSIDKDEEFAGSSPQSSES", "note": "[K23E]", "protein stability index": 3.55},
      {"variant": "YVKAKKSIDKDEEFAGSSPQSSNS", "note": "[K23N]", "protein stability index": 3.41},
      {"variant": "YVKAKKSIDKDEEFAGSSPQSSSS", "note": "[K23S]", "protein stability index": 3.08},
      {"variant": "YVKAKKSIDKDEEFAGSSPQSSVS", "note": "[K23V]", "protein stability index": 3.85},
      {"variant": "YVKAKKSIDKDEEFAGSSPQSSAS", "note": "[K23A]", "protein stability index": 3.44},
      {"variant": "YVKAKKSIDKDEEFAGSSPQSSFS", "note": "[K23F]", "protein stability index": 3.02},
      {"variant": "YVKAKKSIDKDEEFAGSSPQSSLS", "note": "[K23L]", "protein stability index": 3},
      {"variant": "YVKAKKSIDKDEEFAGSSPQSSDS", "note": "[K23D]", "protein stability index": 3.11},
      {"variant": "YVKAKKSIDKDEEFAGSSPQSSIS", "note": "[K23I]", "protein stability index": 2.76},
      {"variant": "YVKAKKSIDKDEEFAGSSPQSSRS", "note": "[K23R]", "protein stability index": 3.4},
      {"variant": "YVKAKKSIDKDEEFAGSSPQSSGS", "note": "[K23G]", "protein stability index": 3.06},
      {"variant": "YVKAKKSIDKDEEFAGSSPQSSYS", "note": "[K23Y]", "protein stability index": 2.76},
      {"variant": "YVKAKKSIDKDEEFAGSSPQSSQS", "note": "[K23Q]", "protein stability index": 3.32},
      {"variant": "YVKAKKSIDKDEEFAGSSPQSSCS", "note": "[K23C]", "protein stability index": 3.5},
      {"variant": "YVKAKKSIDKDEEFAGSSPQSSTS", "note": "[K23T]", "protein stability index": 3.46},
      {"variant": "YVKAKKSIDKDEEFAGSSPQSSWS", "note": "[K23W]", "protein stability index": 2.58},
      {"variant": "YVKAKKSIDKDEEFAGSSPQLSKS", "note": "[S21L]", "protein stability index": 2.86},
      {"variant": "YVKAKKSIDKDEEFAGSSPQRSKS", "note": "[S21R]", "protein stability index": 2.78},
      {"variant": "YVKAKKSIDKDEEFAGSSPQYSKS", "note": "[S21Y]", "protein stability index": 2.98},
      {"variant": "YVKAKKSIDKDEEFAGSSPQQSKS", "note": "[S21Q]", "protein stability index": 3.34},
      {"variant": "YVKAKKSIDKDEEFAGSSPQKSKS", "note": "[S21K]", "protein stability index": 2.92},
      {"variant": "YVKAKKSIDKDEEFAGSSPQVSKS", "note": "[S21V]", "protein stability index": 1.22},
      {"variant": "YVKAKKSIDKDEEFAGSSPQMSKS", "note": "[S21M]", "protein stability index": 3.31},
      {"variant": "YVKAKKSIDKDEEFAGSSPQWSKS", "note": "[S21W]", "protein stability index": 2.41},
      {"variant": "YVKAKKSIDKDEEFAGSSPQTSKS", "note": "[S21T]", "protein stability index": 3.1},
      {"variant": "YVKAKKSIDKDEEFAGSSPQPSKS", "note": "[S21P]", "protein stability index": 2.95},
      {"variant": "YVKAKKSIDKDEEFAGSSPQNSKS", "note": "[S21N]", "protein stability index": 3.25},
      {"variant": "YVKAKKSIDKDEEFAGSSPQSSKM", "note": "[S24M]", "protein stability index": 3.02},
      {"variant": "YVKAKKSIDKDEEFAGSSPQSSKQ", "note": "[S24Q]", "protein stability index": 3},
      {"variant": "YVKAKKSIDKDEEFAGSSPQSSKL", "note": "[S24L]", "protein stability index": 2.71},
      {"variant": "YVKAKKSIDKDEEFAGSSPQSSKH", "note": "[S24H]", "protein stability index": 3.33},
      {"variant": "YVKAKKSIDKDEEFAGSSPQSSKD", "note": "[S24D]", "protein stability index": 2.94},
      {"variant": "YVKAKKSIDKDEEFAGSSPQSSKW", "note": "[S24W]", "protein stability index": 3.03},
      {"variant": "YVKAKKSIDKDEEFAGSSPQSSKI", "note": "[S24I]", "protein stability index": 3.19},
      {"variant": "YVKAKKSIDKDEEFAGSSPQSSKR", "note": "[S24R]", "protein stability index": 2.37},
      {"variant": "YVKAKKSIDKDEEFAGSSPQSSKE", "note": "[S24E]", "protein stability index": 3.55},
      {"variant": "YVKAKKSIDKDEEFAGSSPQSSKP", "note": "[S24P]", "protein stability index": 3.02},
      {"variant": "YVKAKKSIDKDEEFAGSSPQSSKG", "note": "[S24G]", "protein stability index": 2.93},
      {"variant": "YVKAKKSIDKDEEFAGSSPQSSKC", "note": "[S24C]", "protein stability index": 3.13},
      {"variant": "YVKAKKSIDKDEEFAGSSPQSSKN", "note": "[S24N]", "protein stability index": 3.61},
      {"variant": "YVKAKKSIDKDEEFAGSSPQSSKY", "note": "[S24Y]", "protein stability index": 2.83},
      {"variant": "YVKAKKSIDKDEEFAGSSPQSSKF", "note": "[S24F]", "protein stability index": 2.79},
      {"variant": "YVKAKKSIDKDEEFAGSSPQSSKV", "note": "[S24V]", "protein stability index": 2.33},
      {"variant": "YVKAKKSIDKDEEFAGSSPQSSKT", "note": "[S24T]", "protein stability index": 2.85},
      {"variant": "YVKAKKSIDKDEEFAGSSPQSSKK", "note": "[S24K]", "protein stability index": 2.58},
      {"variant": "YVKAKKSIDKDEEFAGSSPQSSKA", "note": "[S24A]", "protein stability index": 3.29}
    ]}
  ]
}
